From patent US20240141039A1 (AGENUS, published 2024)
Each block holds one binder with its values, some of them ahead of it.

Key:
[1] = target: T1, wild type full-length human TIGIT expressed on cells (human, UniProt Q495A1 22-244); test: flow cytometry, dual binding: CHO hu-TIGIT cells with antibody and soluble huCD96-His, Alexa Fluor 488 anti-His detection
T1 construct: whole, on cells; also called human TIGIT-CHO; human TIGIT CHO cells
T1 sequence (looked up): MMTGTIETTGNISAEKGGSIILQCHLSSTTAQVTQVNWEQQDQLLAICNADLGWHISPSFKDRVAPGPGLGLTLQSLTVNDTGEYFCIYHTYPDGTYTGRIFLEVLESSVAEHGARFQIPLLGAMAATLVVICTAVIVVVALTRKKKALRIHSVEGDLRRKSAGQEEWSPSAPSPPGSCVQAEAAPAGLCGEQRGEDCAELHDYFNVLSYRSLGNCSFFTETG
Source text: Cells were centrifuged at 300 g for five minutes.
Antibodies were serially diluted 1-to-3 in FACS buffer.

[2] = target: T2, full-length ECD of human TIGIT (His-tagged) (human); test: SPR Biacore T200, Protein A capture, 1:1 model, experiment #1
T2 construct: also called His-tagged human TIGIT; human TIGIT extracellular domain
T2 chain: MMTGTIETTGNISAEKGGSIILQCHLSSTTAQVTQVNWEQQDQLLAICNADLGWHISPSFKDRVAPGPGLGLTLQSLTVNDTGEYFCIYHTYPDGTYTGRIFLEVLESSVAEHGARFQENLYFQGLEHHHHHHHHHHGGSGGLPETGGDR
Protocol: Briefly, surface plasmon resonance experiments were performed using a Biacore T200 instrument, and the association rate (kₐ), dissociation rate (kd), and dissociation constant (KD) were calculated from each experiment using a 1:1 binding model with Biacore T200 Evaluation Software.
Multispecific molecules were captured using a 30-sec injection at a flow rate of 10 μl/min to reach about 1000 resonance units (RUs). […] The sensor chip was regenerated between cycles with two 30-sec injections of 10 mM glycine, pH 1.5. Sensorgrams were evaluated and fit to a simple Langmuir 1:1 interaction model using the global data analysis option of BIAevaluation 3.0 software. Data quality was verified by visually inspecting deviations and curve fitting, and by evaluating the parameters of Rₘₐₓ, Chi2, and Tc.

[3] = target: T1, wild type full-length human TIGIT …; test: flow cytometry, blocking of CD155-Fc-PE binding to human TIGIT CHO cells, geomean of 3 experiments
Protocol: (§1) A 4× concentrated intermediate stock of each multispecific molecule was prepared in a microplate. Antibodies were serially diluted 1-to-3 in FACS buffer. […] Lastly, 25 μL of human TIGIT-CHO cells, prepared as described above, were added to each well. After a 30-minute incubation on ice, the cells were washed twice with cold FACS Buffer, and the cells were analyzed by flow cytometry (BD LSR Fortessa Flow Cytometer). The data were analyzed using the FlowJo software by sequentially gating on the FSC-A vs. SSC-A and SSC-H vs. SSC-A. Mean fluorescence intensity (MFI) values for PE were calculated, and the data were plotted by GraphPad Prism software and analyzed as described above.

[4] = target: T3, wild type full-length cynomolgus monkey TIGIT expressed on CHO cells (cynomolgus monkey, UniProt A0A7N9I9V4 89-312); test: flow cytometry on CHO cells expressing cynomolgus TIGIT, PE anti-human IgG Fc detection
T3 construct: whole, on cells; also called cynomolgus TIGIT-CHO cells
T3 sequence (A0A7N9I9V4 entry or part of it): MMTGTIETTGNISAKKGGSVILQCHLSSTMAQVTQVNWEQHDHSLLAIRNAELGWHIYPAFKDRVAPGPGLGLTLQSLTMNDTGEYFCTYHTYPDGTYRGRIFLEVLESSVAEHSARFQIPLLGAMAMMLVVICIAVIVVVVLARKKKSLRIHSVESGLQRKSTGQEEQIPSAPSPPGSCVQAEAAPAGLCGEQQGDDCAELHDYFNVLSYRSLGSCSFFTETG

[5] = target: T3, wild type full-length cynomolgus monkey …; test: flow cytometry, blocking of human CD155-Fc-PE binding to CHO cells expressing cynomolgus TIGIT
Protocol: as §1, with “1-to-4” for “1-to-3”, “cynomolgus” for “human”

[6] = target: T4, full-length human FcγRIIIa variant F/F expressed on CHO cells (human, UniProt P08637 17-254); test: flow cytometry, human FcγRIIIa (F/F) CHO cells, 1 experiment
T4 construct: whole, on cells; also called human FcγRIIIa-CHO (variant F/F); human FcγRIIIa (F/F) CHO cells
T4 sequence (P08637 17-254, change not shown): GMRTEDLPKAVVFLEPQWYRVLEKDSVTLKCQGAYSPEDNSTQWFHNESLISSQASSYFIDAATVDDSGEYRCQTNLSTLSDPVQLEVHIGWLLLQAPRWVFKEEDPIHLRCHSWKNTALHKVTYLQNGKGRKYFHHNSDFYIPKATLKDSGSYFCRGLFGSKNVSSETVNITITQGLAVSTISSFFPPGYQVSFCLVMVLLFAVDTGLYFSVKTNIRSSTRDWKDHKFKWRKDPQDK
Protocol: (§2) For the antibody binding assay, a frozen aliquot of human FcγRIIIa-CHO cells (variant V/V or variant F/F) was thawed at 37° C. and then transferred to a tube containing DPBS supplemented with 0.5% Bovine Serum Albumin and 0.05% Sodium Azide (FACS Buffer). Cells were centrifuged at 300 g for five minutes. The supernatant was discarded, and cells resuspended in FACS buffer were seeded in a 96-well U-bottom tissue culture plate at a density of 2×10⁵ cells per well in 50 μL. In a separate microplate, a 2× concentrated intermediate stock of each antibody was prepared. Antibodies were serially diluted 1-to-4 in FACS buffer. A total of 11 working dilutions ranging from 60 μg/mL to 0.000057 μg/mL were prepared. Fifty microlitres of each dilution were then transferred to the microplate containing human FcγRIIIa-CHO (variant V/V or variant F/F) cells. The cells were then incubated for 45 minutes at 4° C. […] After a 30-minute incubation on ice, the cells were washed twice with cold FACS Buffer, and the cells were analyzed by flow cytometry (BD LSR Fortessa Flow Cytometer). The data were analyzed using the FlowJo software by sequentially gating the FSC-A vs. SSC-A, and SSC-H vs. SSC-A. Mean fluorescence intensity (MFI) values for PE were calculated, and the data were plotted by GraphPad Prism software.

[7] = target: T5, full-length human FcγRIIIa variant V/V expressed on CHO cells (human, UniProt P08637 17-254); test: flow cytometry, human FcγRIIIa (V/V) CHO cells, 2 experiments
T5 construct: whole, on cells; also called human FcγRIIIa-CHO (variant V/V); human FcγRIIIa (V/V) CHO cells
T5 sequence (P08637 other isoform, or with tags, fused parts or gaps mutant limits assumed): as the sequence (P08637 17-254, change not shown) above, with F160V counted along it
Protocol: as §2

EC50 (read off the curve) [1]: ~0.3 µg/mL
Kd [2]: 0.584 nM
koff [2]: 0.000356 s⁻¹
kon [2]: 610000 M⁻¹ s⁻¹
IC50 [3]: 0.164 µg/mL
EC50 (read off the curve) [4]: ~0.2 µg/mL
B1: anti-TIGIT×CD96 multispecific molecule BA127 (bispecific antibody, human IgG1, kappa, lambda)
heavy 1: QVQLVQSGAEVKKPGASVKVSCKASGYTFTTYALHWVRQAPGQRLEWMGWINTGSGDTKYSQKFQGRVTITRDTSASTAYMELSSLRSEDTAVYYCARSLGVYYGMDVWGQGTLVTVSSASTKGPSVFPLAPSSKSTSGGTAALGCLVKDYFPEPVTVSWNSGALTSGVHTFPAVLQSSGLYSLSSVVTVPSSSLGTQTYICNVNHKPSNTKVDKRVEPKSCDKTHTCPPCPAPELLGGPDVFLFPPKPKDTLMISRTPEVTCVVVDVSHEDPEVKFNWYVDGVEVHNAKTKPREEQYNSTYRVVSVLTVLHQDWLNGKEYKCKVSNKALPAPIEKTISKAKGQPREPQVYTLPPSREEMTKNQVSLSCAVKGFYPSDIAVEWESNGQPENNYKTTPPVLDSDGSFFLVSKLTVDKSRWQQGNVFSCSVMHEALHNHYTQKSLSLSPG
light 1: not shown
heavy 2: EVQLVQSGAEVKKPGSSVKVSCKASGYTFASYGISWVRQAPGQGLEWMGGITPFFNRVDVAEKFQGRVTITADKSTSTAYIELSSLRSEDTAVYYCARDLRRGGVGDAFDIWGRGTLVTVSSASTKGPSVFPLAPSSKSTSGGTAALGCLVKDYFPEPVTVSWNSGALTSGVHTFPAVLQSSGLYSLSSVVTVPSSSLGTQTYICNVNHKPSNTKVDKRVEPKSCDKTHTCPPCPAPELLGGPDVFLFPPKPKDTLMISRTPEVTCVVVDVSHEDPEVKFNWYVDGVEVHNAKTKPREEQYNSTYRVVSVLTVLHQDWLNGKEYKCKVSNKALPLPEEKTISKAKGQPREPQVYTLPPSREEMTKNQVSLWCLVKGFYPSDIAVEWESNGQPENNYKTTPPVLDSDGSFFLYSKLTVDKSRWQQGNVFSCSVMHEALHNHYTQKSLSLSPG
light 2: QSALTQPRSVSGSPGQSVTISCTGTSPDVGSHAYRSWYQQHPGKAPKLMIYEVSYRPSGVSNRFSGSKSGNTASLTISGLQAEDEADYYCSSYPPSSATVFGAGTKLTVLGQPKAAPSVTLFPPSSEELQANKATLVCLISDFYPGAVTVAWKADSSPVKAGVETTTPSKQSNNKYAASSYLSLTPEQWKSHRSYSCQVTHEGSTVEKTVAPTEC
notes: Anti-CD96 arm = BA139, anti-TIGIT arm = BA150; copies: 1 + 1 + 1 + 1

IC50 (read off the curve) [5]: ~0.2 µg/mL
EC50 [6]: 0.00262 µg/mL
EC50 [7]: 0.0455 µg/mL
B2: anti-TIGIT monospecific antibody BA148 (antibody, human IgG1, lambda)
heavy: EVQLVQSGAEVKKPGSSVKVSCKASGYTFASYGISWVRQAPGQGLEWMGGITPFFNRVDVAEKFQGRVTITADKSTSTAYIELSSLRSEDTAVYYCARDLRRGGVGDAFDIWGRGTLVTVSSASTKGPSVFPLAPSSKSTSGGTAALGCLVKDYFPEPVTVSWNSGALTSGVHTFPAVLQSSGLYSLSSVVTVPSSSLGTQTYICNVNHKPSNTKVDKRVEPKSCDKTHTCPPCPAPELLGGPDVFLFPPKPKDTLMISRTPEVTCVVVDVSHEDPEVKFNWYVDGVEVHNAKTKPREEQYNSTYRVVSVLTVLHQDWLNGKEYKCKVSNKALPLPEEKTISKAKGQPREPQVYTLPPSREEMTKNQVSLTCLVKGFYPSDIAVEWESNGQPENNYKTTPPVLDSDGSFFLYSKLTVDKSRWQQGNVFSCSVMHEALHNHYTQKSLSLSPGK
light: B1 light 2
notes: IgG1; also called anti-TIGIT IgG1 antibody BA148
